Reference: US20220227863A1 (BLUEFIN BIOMEDICINE, published 2022)

B1: 3C4A3_7C5 (antibody, V domains shown)
VH: EVQLLESGGGLVQPGGSLRLSCAASGFTFSSYAMSWVRQAPGKGLEWVSVISGSGGSTYYADSVKGRFTISRDNSKNTLDLQMNSLRAEDTAVYYCAKLGDYYYGMDVWGQGTTVTVSS
VL: not shown
B2: 1E2F12H8_3D2 (antibody, V domains shown)
VH: EVQLLESGGGLVQPGGSLRLSCAASGFTFSSYAMSWVRQAPGKGLEWVSIISGSGGDTYYADSVKGRFTISRDNSKNTLYLQMNSLRAEDTAVYYCAKTDDHGDFFDYWGQGTLVTVSS
VL: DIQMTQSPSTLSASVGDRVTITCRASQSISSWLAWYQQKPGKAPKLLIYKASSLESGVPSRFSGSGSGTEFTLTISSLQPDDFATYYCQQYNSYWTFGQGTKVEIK
B3: 1E12H10_7A1 (antibody, V domains shown)
VH: QVQLVESGGGVVQPGRSLRLSCATSGFTFSSYGMHWVRQAPGKGLEWVALIWFDGGNQYYADSVKGRFTISRDNSKNTLYLQLNSLRAEDTAVYFCARDVISMVRGVPFDYWGQGTLVTVSS
VL: DAVVTQESALTTSPGETVTLTCRSSTGAVTTGNYANWVQEKPDHLFTGLIGGIKNRVPGVPARFSGSLIGDRAALTITGAQTEDEAIYFCALWYSNHWVFGGGTKLTVLG
B4: 17E8_27C5 (antibody, V domains shown)
VH: QVQLVESGGGVVQPGRSLRLSCAASGFTFSNYGMHWVRQAPGKGLEWMAGIWFDGTNKYYIDSVKGRFTISRDNSKNTLYLQMNNLRAEDTAVYYCARDVISMVRGVPFDYWGQGTLVTVSS
VL: DAVVTQESALTTSPGETVTLTCRSSTGAVTTSNYANWVQEKPDHLFTGLIGGINNRAPGVPARFSGSLIGDKAALTITGAQTEDEAIYFCALWYSNHWVFGGGTKLTVLG
notes: Recombinant antibody from CHO cells
B5: 11H10_27D4 (antibody, V domains shown)
VH: QVQLVESGGGVVQPGRSLRLSCAASGFTFSNYGIHWVRQAPGKGLEWVAVIWFDGNNKYYADSVKGRFTISRDNSKNTLYLQMNSLRAEDTAVYYCARDVITLVRGVPFDYWGQGTLVTVSS
VL: DAVVTQESALTTSPGETVTVTCRSSTGAVTTSNYANWVQEKPDHLFTGLIGGINNRAPGVPARFSGSLIGDKAALTITGAQTEDEAIYFCALWYSNHWVFGGGTKLTVLG
notes: as for B4
B6: 17F4_27C6 (antibody, V domains shown)
VH: QVQLVESGGGVVQPGRSLRLSCAASGFTFSTYGIHWVRQAPGKGLEWVAVIWFDGSNKYYADSVKGRFTISRDNSKNTLYLQMNSLRAEDTAVYYCARDVISMVRGVPFDYWGQGTLVTVSS
VL: DAVVTQESALTTSPGETVTLTCRSSTGAVTTSNYANWVQEKPDHLFTGLIGGINNRVPGVPARFSGSLIGDKAALTITGAQTEDEAIYFCALWYSNHWVFGGGTKVTVLG
notes: as for B4
B7: 16B10_27D2 (antibody, V domains shown)
VH: QVQLVESGGGVVQPGRSLRLSCAASGFTFNNYGMHWVRQAPGKGLEWVAIIWNDGSNPYYADSVKGRFTISRDNSKNTLYLQMNSLRAEDTAVYYCVRDSSSWFVNYFDYWGQGTLVTVSS
VL: EIVMTQSPATLSVSPGERATLSCRASQSVNRNLAWYQQKPGQAPRLLIYGASTRATGIPASFSGSGSGTEFTLTISSLQSEDFAVYYCQHYNHWPLTFGGGTKVEIK
notes: as for B4
B8: 20H6_24C3 (antibody, V domains shown)
VH: QVQLQESGPGLLKPSETLSLTCTVSGGSISPYYWSWIRQPPGKGLEWIGYIYYSGNTNYNPSLQSRLTISVDTSKNQFSLKLSSVTAADTAVYYCARRGYSFGFYYGLDVWGQGTTVTVSS
VL: DIQMTQSPSSLSASVGDRVTITCRASQDISIYLAWYQQKPGKVPNLLIYLASTLQSGVPSRFSGSGSGTDFTLTISSLQPEDVATYYCQKYNSAPWTFGQGTKLEIK
notes: as for B4
B9: 7C12_24A6 (antibody, V domains shown)
VH: QVQLQESGPGLVNPSKTLSLTCTVSGGSISSYFWSWIRQPPGKGLEWIGYIYDSGSTNYNPSLKSRVTISVDTSKNHFSLKLSSVTAADTAVYYCARRGGYYGSGSYGGMDVWGQGTTVTVSS
VL: DIQMTQSPSSLSASVGDRVTITCRASQGISNYLAWYQQKPGKVPKLLISAASTLQSGVPSRFSGSGSGTDFTLTISSLQPEDVATYYCQKYNSAPWTFGQGTKLEIK
notes: as for B4
B10: 8C7_24B1 (antibody, V domains shown)
VH: QVQLQESGPGLVKPSETLSLTCTVSGGSISSYYWSWIRQPPGKGLEWIGYIHYSGSTNYNPSLKSRVTISEDTSKNQFSLKLSSVTAADTAVFYCAGRRYYYDSSGYLDYWGQGTLVTVSS
VL: DIQMTQSPSSLSASVGDRVTITCRASQGISNYLAWYQQKPGKVPKLLIYAASTLQSGVPSRFSGSGSGTDFTLTISSLQPEDVATYYCQKYNSAPWTFGQGTKLEIK
notes: as for B4
B11: 6H9_27D5 (antibody, V domains shown)
VH: QVELQQSGPGLVKPSETLSLTCTVSGGSISTYFWSWTRQPPGKGLEWIGYTNYRGNTNYNPSLESRVTISVDTSKNQFSLKLSSVTAADTAVYYCARRGGYYGSGNYGGMDVWGQGTTVTVSS
VL: DIQMTQSPSSLSASVGDRVTITCRASQGISNYLAWYQQKPGKVPKLLIYAASTLQSGVPSRFSGSGSGTDFTLTISSLQPEDLATYYCQKYDSAPWTFGQGTKLEIK
notes: as for B4
B12: 10A5_24A2 (antibody, V domains shown)
VH: QLQLQESGPGLVNPSKTLSLTCNVSGGSMSNYFWSWIRQPPGKGLEWIGYIYNSGNTNYHPSLQSRVTISVDTSKNLFSLKLTSVTAADTAVYYCARRGGYYGSGNYGGLDVWGHGTTVTVSS
VL: DIQMTQSPSSLSASVGDRVTITCRASQGISNYLAWYQQKPGKVPKLLIYAASTLQSGVPSRFSGTGSGTDFTLTISSLQPEDVATYYCQKYDSAPWTFGQGTKVEIK
notes: as for B4
B13: 5A2_24A1 (antibody, V domains shown)
VH: QVQLQESGPGLVNPSKTLSLTCTVSGGSISRYFWSWIRQPPGKGLEWIGYIYDSGSTNYNPSLKSRVTISVDTSKNHFSLKLSSVTAADTAVYYCARRGGYYGSGSYGGMDVWGQGTTVTVSS
VL: DIQMTQSPSSLSASVGDRVTITCRASQGISNYLAWYQQKPGKIPKLLISAASTLQSGVPSRFSGSGSGTDFTLTISSLQPEDVATYYCQKYDSAPWTFGQGTKVEIK
notes: as for B4
B14: 5E3-24B4 (antibody, V domains shown)
VH: QVQLQESGPGLVKPSETLSLTCTVSGGSISSHYWNWIRQPPGKGLEWIGYIHYSGGTNYNPSQKSRVTISVDTSKNQFSLKLSSVTAADTAVYYCAGRRYYFDSSGYLDYWGQGTLVTVSS
VL: DIQMTQSPSSLSASVGDRVTITCRASQGISNYLAWYQQKPGKIPKLLIYAASTLQSGVPSRFSGSGSGTDFTLTISSLQPEDVATYYCQKYNSAPWTFGQGTKLEIK
notes: as for B4
B15: 1C4_24B3 (antibody, V domains shown)
VH: QVQLQEAGPGLVNPSKTLSLTCTVSGGSISSYFWSWIRQPPGKGLEWIGYIYNSGSTNYNPSLQSRVTISVDMSKNHFSLKLSSVTAADTAVYYCARRGGYYGSGNYGGMDVWGQGTTVTVSS
VL: DIQMTQSPSSLSASAGDRVTITCRASQGISNYLAWYQQKPGKVPKLLMYAASALQSGVPSRFSGSGSGTDFTLTISSLQPEDVATYYCQKYDSAPWTFGQGTKVEIK
notes: Recombinant antibody from CHO cells; also called 1C4_24B4
B16: 4F4_27D3 (antibody, V domains shown)
VH: QVQLQESGPGLVKPSETLSLTCTVSGGSISSHYWSWIRQPPGKGLEWIGYIYYNGGTNYKPSLKSRVTISVDTSKNQFSLKLTSVTAADTAVYYCAGRRYYYDSSGYLDYWGQGTLVTVSS
VL: DIQMTQSPSSLSASVGDRVTITCRASQGISNYLAWYQQKPGKVPKLLIYAASTLQSGVPSRFSGSGSGTDFTLTISSLQPEDVATYYCQKYNSAPWTFGQGTKLEIK
notes: as for B4
B17: 3D8D11 (antibody, V domains shown)
VH: QVQLQESGPGLVKPSETLSLTCTVSGGSISSYFWSWIRQPPGKGLEWIGYIYYSGSTNYNPSLKSRVTISVDTSKNQFSLKLSSVTAADTAVYYCARRGGYSYGYGYYGMDVWGQGTTVTVSS
VL: DIQMTQSPSSLSASVGDRVTITCRASQGISNYLAWYQQKPGKVPKLLIYAASTLQSGVPSRFSGSGSGTDFTLTISSLQPEDVATYYCQKYNSAPWTFGQGTKLEIK
notes: as for B4
B18: 14E7_27C1 (antibody, V domains shown)
VH: QVQLQESGPGLVKPSETLSLTCTVSGGSISSYYWSWIRQPPGKGLEWIGYIYYSGSTNYNPSLKSRLTISVDTSKNQFSLKLSSVTAADTAVYYCARRGYSYGYYYGMDVWGQGTTVTVSS
VL: DIQMTQSPSSLSASVGDRVTITCRASQDISNYLAWYQQKPGKVPKLLISPASTLQSGVPSRFSGSGSGTDFTLTISSLQPEDVATYYCQKYNSAPWTFGQGTKLEIK
notes: as for B4
B19: 3H3_24B2 (antibody, V domains shown)
VH: QIQLQESGPGLVNPSKTLSLTCTVSGGSIRSYFWSWIRQPPGKGLEWIGYIYDSGNTNYNPSLKSRVTISVDTSKNHFSLKLSSVTAADTAVYYCARRGGYYGSGNYGGMDVWGQGTTVTVSS
VL: DIQMTQSPSSLSASVGDRVTITCRASQGISNYLAWYQQKPGKVPKLLIYAASTLQSGVPSRFSGSGSGTDFTLTISSLQPEDVATYYCQKYNSAPWTFGQGTKLEIK
notes: as for B4
B20: 8E11B6 (antibody, V domains shown)
VH: QVQLEESGGGVVQPGRSLRLSCAASGFTFSSYGMHWVRQAPGKGLEWVAVIWYDGSNTYYADSVKGRFTISRDNSKNTLYLQMNSLRAEDTAVYYCARERETFFYVMDAWGQGASVTVSS
VL: DIQMTQSPSTLSASVGDRVTITCRASQSISSWLAWYQQKPGKAPKLLIYKASSLESGVPSRFSGSGSGTEFTLTISSLQPDDFAIYYCQQFNRFITFGQGTRLEIK

These binders were tested against T1, recombinant human ILT3 ectodomain with C-terminal histidine tag (human, UniProt Q8NHJ6 22-259) (assay: BLI (Octet Red), antibody on Protein A biosensors, recombinant ILT3 in solution).
T1 construct: also called recombinant ILT3; hILT3; not shown: C-terminal histidine tag
T1 sequence (Q8NHJ6 22-259 D223G): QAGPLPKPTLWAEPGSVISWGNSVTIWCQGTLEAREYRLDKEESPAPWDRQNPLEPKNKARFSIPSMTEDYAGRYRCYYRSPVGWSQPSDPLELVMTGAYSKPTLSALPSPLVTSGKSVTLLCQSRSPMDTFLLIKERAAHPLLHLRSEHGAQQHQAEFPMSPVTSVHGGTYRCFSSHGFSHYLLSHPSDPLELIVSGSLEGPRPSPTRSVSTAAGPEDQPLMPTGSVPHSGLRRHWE
In the case of B1, the Kd is reported as 21 nM.
B2 was tested, and the Kd was 6 nM.
In the case of B3, the Kd is reported as 3 nM.
For B4, the Kd was 2 nM.
B5 gave a Kd of 1 nM.
For B6, the Kd was 3 nM.
In the case of B7, the Kd is reported as 1 nM.
In the case of B8, the Kd is reported as 1 nM.
With B9 the Kd was 50 nM.
With B10 the Kd was 60 nM.
Binder B11 has a Kd of 1 nM.
With B12 the Kd was 2 nM.
Work on B13 yielded a Kd of 30 nM.
For B14, the Kd was 2 nM.
For B15, the Kd was 12 nM.
B16 was tested, and the Kd was 30 nM.
Binder B17 has a Kd of 170 nM.
With B18 the Kd was 75 nM.
Work on B19 yielded a Kd of 40 nM.
In the case of B20, the Kd is reported as 10 nM.

What follows are binders tested against T2, recombinant cynomolgus monkey ILT3 ectodomain with C-terminal histidine tag (cynomolgus monkey) in the same assay as above.
T2 construct: extracellular domain; Non-native signal peptide; expressed in CHO cells
Description: (§1) Affinity: The affinity of antibodies to recombinant ILT3 was determined on an Octet Red™ (Pall, ForteBio) instrument. After loading reagents into a 96-well plate, the Octet Red™ with Protein A-conjugated biosensors was programmed as follows: 30 seconds for baseline #1; 45 seconds to immobilize the antibody; 30 seconds for baseline #2; 300 seconds for association of antibody to recombinant ILT3; and 300 seconds for dissociation of recombinant ILT3 from the antibody. In some cases, the antibody affinity was estimated against cynomolgus ILT3 using a flow based method. Briefly, the assay uses 3-5 fold dilutions from 100 nM to 0.1 nM of a stock antibody concentration (100 nM) diluted in flow buffer. […] Acquisition of the MFI (Median Fluorescent Intensity) was performed on a MACSQuant® Flow Cytometers (Miltenyi Biotec).
Work on B1 yielded a Kd of 56 nM.
B2 gave a Kd of 27 nM.
B3 showed a Kd of 200 nM.

Each binder was assayed against T3, cynomolgus ILT3 expressed on HEK293 cells (Macaca fascicularis (cynomolgus monkey)) (assay: flow cytometry, serial antibody dilutions on live HEK293 cells expressing cynomolgus ILT3, Alexa Fluor 647 anti-human IgG secondary, MFI).
T3 construct: whole, on cells; also called Macaca fascicularis ILT3 homologue; macaque ILT3 homologue
Description: as §1
With B2 the “EC50 (read off the curve)” value was roughly 6 nM.
